Assay: soluble on expression in E. coli; label from the status in PepcDB or PDB records

Soluble on expression in E. coli, not soluble:
MGSDKIHHHHHHMSTLPHLGFQVYQPCAPLLPYVRCYWQITRIAAPETRSTEFMHPEGGTGIIFNFGAPMHFDGWQHRAQCLVTGPTKQSTRLELSGRVDALGIRFWPGAGRAFLKTPLSEMLGQTLTPADLSLALLSDELAERLAVLPTAPERIALLETRLLHYLTAHGSQTQTTEPSMKYALNWIAEQKGQGEIRNLLTEIDISQRQLERLFQQNLGMSPKNYSILQRTGFARELLKSDTDSPLTDIGYQAGFYDQAHFIREFKQVIGITPGQFRSKALLRR
MGSDKIHHHHHHMSTSAIDPVSFSLYAKDFTRFAQELGASFERYGFAVLSDYDLDQARIDAAVDSAKAFFALPVETKKQYAGVKGGARGYIPFGVETAKGADHYDLKEFWHMGRDLPPGHRFRAHMADNVWPAEIPAFKHDVSWLYNSLDGMGGKVLEAIATYLKLERDFFKPTVQDGNSVLRLLHYPPIPKDATGVRAGAHGDINTITLLLGAEEGGLEVLDRDGQWLPINPPPGCLVINIGDMLERLTNNVLPSTVHRVVNPPPERRGVPRYSTPFFLHFASDYEIKTLQNCVTAENPDRYPESITADEFLQQRLREIKLA
MGSDKIHHHHHHMSTVESALTRRIMGIETEYGLTFVDGDSKKLRPDEIARRMFRPIVEKYSSSNIFIPNGSRLYLDVGSHPEYATAECDNLTQLINFEKAGDVIADRMAVDAEESLAKEDIAGQVYLFKNNVDSVGNSYGCHENYLVGRSMPLKALGKRLMPFLITRQLICGAGRIHHPNPLDKGESFPLGYCISQRSDHVWEGVSSATTRSRPIINTRDEPHADSHSYRRLHVIVGDANMAEPSIALKVGSTLLVLEMIEADFGLPSLELANDIASIREISRDATGSTLLSLKDGTTMTALQIQQVVFEHASKWLEQRPEPEFSGTSNTEMARVLDLWGRMLKAIESGDFSEVDTEIDWVIKKKLIDRFIQRGNLGLDDPKLAQVDLTYHDIRPGRGLFSVLQSRGMIKRWTTDEAILAAVDTAPDTTRAHLRGRILKAADTLGVPVTVDWMRHKVNRPEPQSVELGDPFSAVNSEVDQLIEYMTVHAESYRS
MGSDKIHHHHHHMSVNETTNIKKNERSVLLPERHPNHELFICDVLEAIPKDDLASMEHPVFSLATKPDTRTLIYEHRDVKIQITPSVKGLATIFDKDLLIFCISQMIAKKNRGEPLSQNVRLHAYDLLIWTNRETSGDAYRRLIEAFERLRGTTIVTNIKADGEEITTGFGLIDSFKVVRHTATGRMSELEVRISDWMFKIIQGSQVLTLSRDYFRLRKPIERRIYEIARKHCGEQDEWRISIELLQKKTGASSHERAFKAMVRELVKCDHLPDYSVTLEDDMVIFYNRAGLSEKIPLTAFPQLNAETYNDARTVAPGYDVYYLEQEWRDMWVDTGMPLLHNPDKAFIAFCKSRAKRRPMGR
MGSDKIHHHHHHMSVNPLFKVILHPFIKESIASLKAMTNLTGVAGDPFMDKVEDFRFKGYAVCSDVTGSLDGVIMMHHYPETAIAIGNSVCQNMFNETYAFDAINDDLRNALAEWGNTIVGRSTDLHSRHKLEYGFSSPYFVEDLTEMDKYLVGVKQVITVPIMVEGIGRYYFNLLIRDVVEQVANVDIDAQSIDVENTHTTPLPLTSTVLVVDDSAMIRKAISRFLNNLGYHNVIEADDGIGAIEAVKAGKVDFIFMDVVMTRLNGDAALAELRNMGSQVPVVMLSSVTDNILVKQCQKHGISGFIFKPINANNGAETIAKYLKIAAAVAI
MGSDKIHHHHHHMSVQESVGGDVTGWWPSDNESLSPYPLYRERFCREGGLQPVFSGRTVLLPLRPGLLLSMREGQALTDLRGKREVGPAMHLEILFAAEGYSVVSGSTERYPFKPNTVSLQVTSSAVVAEFFIPAGAVIRSLAVRFSGLYLDHLASKGGFAALCSGGGDPLLLSRGVDLVMRPLSPALRPLASQILATEGATDGERLFLEAKILELISVVLSTPASGGGQSQTEPTKTALSRRDHKKIGQARELLIGDLDKTWKIKDLARHVGMNENKLKAGFRQIYDNSIYAYLQDWRMRAASHRLKQGEDSVTGVALSVGYSNPAHFAKVFRRYFGVSPSRYAEDGAPGPKKDNETY
MGSDKIHHHHHHMSYELARVPRGEHHFHSVRVRTGDVLGLIEKTAFFELDDTLFVYPFYQRFSYQVNERHQEDGVSGSSPIHQHHSSVAASVRNYQPGDRFAALDWKTSARRSQLMTKEFEPSRSKNLFLLMDRFSSDAFEEVVSVTASILHSVLKNGAGAGLASIGKEKNIFPIQEGDQHFKHMLRHLAIAHCDAADPISRYAREELGKPSVRQADQVVVTGQLTEDMLHLAEIGGGRVTVILAKEKDAELSQAENVMIERMMKRQIRVRIMRGGRVSRVV
MGSDKIHHHHHHMTALRQDIDPNGLLEYSVVYTDRALNHMSKAFQEVMNDLLSNLKTVYNAEAAVIIPGSGTYGMEAVARQLTIDEDCLIIRNGWFSYRWTQILEKGKFAKSSTVLTAERTEDTEAPKPFAPVDIETAVAKIKEDKSAIVYAPHVETSSGIILSEEYIKALSEAVHSVGGLLVIDCIASGCVWLDMKELGIDVLISAPQKGWSSTPCAGLVMLSAAAIKKVESTESNCFSLDLKQWLTIMRAYENGGHAYHATMPTDSLRQFRDAILEAKEIGFDILRDAQWELGNRVRKVLTDKGIESVAAEGFEAPGVVVSYTERDDMHKGSAFAEAGLQIAAGVPLKVGEPDNFKTFRLGLFGLDKLTDIDGTVERFEKALDEVLAK
MGSDKIHHHHHHMTDNFFHGVRVRESTDLVTAINDIDSTVIGIVAIADDADPEMFPLNTPVLLTRVNNALGKAGKTGSLYKSLKAISDQCSTKVIVVRVAAATDGDDNQTQSQLVIGGTAADGSYTGMYAFLTAEQKTGYRPRILAVPDHDTIEVATQLGVIAQKLRAFFYAYCHNCETIAEAKAYRETLNYREVMPIWPNFIAYNTLTGENEEFPAVAYACGLRALIDNTQGWHKSLSNVAVNNVLGISKDVFWALQAEDSDANELNAHEITTLIKRDGFRFWGNRTTDPDKEYIFEVYTRTAQILADSIAEAQFTTVDKPMTPGNVKDVVSGINAKLQALVTAGKLIGAACWFDIVDNPTTGLRQGKCIVRYNYTPVPPLEDLSLYQTFTDQYFETAFSSLGGA
MGSDKIHHHHHHMTDNIKSRRSAVPGCAIHCHDCSMGTLCIPFTLNNNELDQLDDIIERKKPIQKGEQIFKSGDSLKSLYAIRSGTIKSYTITEQGDEQITGFHLAGDVIGFDGIHSQIHQSFAQALETSMVCEIPFDTLDELSGTMPKLRQQIMRLMSNEIQSDQEMILLLSKKNAEERLAAFISNLASRFGSRGFSPKEFRLTMTRGDIGNYLGLTVETISRLLGRFQKAELIEVKGKYITIVDFDSLNKLAGNNKIGR
MGSDKIHHHHHHMTDWHFYEPARGHALRHDPLNAIVAPRPIGWISTISSDGVRNLAPYSFFNLFSYKPPIVGFCSLGAKDSLANARDTGEFVWNLATRPLVEAMNASAAMVPAHVDEFELAKLETLPSAKVRPARVAASPVQFECVVTQIVQLEAQGGAALPAWLVLGEAVAIHIDRQLITNGVYQTAQARPILRGGGPADYFEIGAGQLFTLERPGD
MGSDKIHHHHHHMTEAHNACCHPSGTAAGHHGAGKASTDMMDAVDRRLLDIIQTGFPIEPRPYAVLGETLGITECEALARVRALRERKVIRRLGANFDSWKLGFRSTLCAAKVPEDRIDAFVAEVNRHVNVTHNYLRNHEYNIWFTCICPSWEQVCSLLDGITERTGIPILNLPATKLYKIRVDFRMD
MGSDKIHHHHHHMTERIRIGISSCLLGNKVRHDGGHKFDSYIVNVLGRYLDFVPVCPEVECGLPTPREPMRLAGDVHSPRLMTSKTWQDKTEQMQTWADSKVRELEGQGLCGFIFKRGSPSSGMERVKVYPFTDPREVKNVGAPVLKGSGLFARTFMEHFPLLPVEEEGRLNDPVLRENFIERLFVVRRWYDLLESGMAPGAVVEFHTRHKLLLLAHSTQKYREMGRLVAAVREYSPEQFRTEYRRLLMEALSVRATAGRHANVQQHIMGYFRRQLTTDEKQELVEIIDRYRNGLVPLIVPVTMLNHYVRKYGDEYLAGQYYLNPHPVELKLRNHI

Reference: the DeepSol protein solubility set
